Source: patent publication US20150203575A1 (Genentech, published 2015)

T1: CLEC4G expressed on cells (human, UniProt Q6UXB4 1-293)
T1 construct: Clone of the Origene human cDNA library; also called C type lectin superfamily 4 member G
T1 sequence: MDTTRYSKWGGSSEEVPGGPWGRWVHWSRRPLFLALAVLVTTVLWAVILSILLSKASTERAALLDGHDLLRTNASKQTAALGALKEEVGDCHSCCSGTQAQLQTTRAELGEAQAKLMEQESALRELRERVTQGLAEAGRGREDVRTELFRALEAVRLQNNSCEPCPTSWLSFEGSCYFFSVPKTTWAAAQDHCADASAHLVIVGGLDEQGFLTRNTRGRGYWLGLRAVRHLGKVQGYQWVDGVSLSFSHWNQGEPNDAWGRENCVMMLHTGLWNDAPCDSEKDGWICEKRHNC

T2: IL-2Ra expressed on cells (human, UniProt P01589 22-272)
T2 construct: Clone of the Origene human cDNA library; also called Interleukin 2 receptor alpha
T2 sequence: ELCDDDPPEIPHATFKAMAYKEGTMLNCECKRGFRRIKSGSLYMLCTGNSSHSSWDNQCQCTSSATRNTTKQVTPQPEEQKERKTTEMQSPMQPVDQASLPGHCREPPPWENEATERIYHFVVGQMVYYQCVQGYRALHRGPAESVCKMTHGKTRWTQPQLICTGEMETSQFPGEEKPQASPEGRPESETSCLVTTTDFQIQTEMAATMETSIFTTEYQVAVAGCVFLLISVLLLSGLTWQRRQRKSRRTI

T3: FceRII expressed on cells (human, UniProt P06734 1-321)
T3 construct: Clone of the Origene human cDNA library; also called FcRII
T3 sequence: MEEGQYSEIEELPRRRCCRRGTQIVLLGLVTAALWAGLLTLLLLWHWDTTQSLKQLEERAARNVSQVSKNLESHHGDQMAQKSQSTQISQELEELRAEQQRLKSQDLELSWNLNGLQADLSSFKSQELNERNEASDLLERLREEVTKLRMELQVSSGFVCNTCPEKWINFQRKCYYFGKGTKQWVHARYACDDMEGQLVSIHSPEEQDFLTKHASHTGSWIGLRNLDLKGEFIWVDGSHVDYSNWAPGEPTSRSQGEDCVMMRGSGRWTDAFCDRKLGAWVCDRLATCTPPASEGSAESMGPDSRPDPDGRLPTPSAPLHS

T4: APLP1 expressed on cells (human, UniProt P51693 39-650)
T4 construct: Clone of the Origene human cDNA library; also called Amyloid beta precursor like protein 1
T4 sequence: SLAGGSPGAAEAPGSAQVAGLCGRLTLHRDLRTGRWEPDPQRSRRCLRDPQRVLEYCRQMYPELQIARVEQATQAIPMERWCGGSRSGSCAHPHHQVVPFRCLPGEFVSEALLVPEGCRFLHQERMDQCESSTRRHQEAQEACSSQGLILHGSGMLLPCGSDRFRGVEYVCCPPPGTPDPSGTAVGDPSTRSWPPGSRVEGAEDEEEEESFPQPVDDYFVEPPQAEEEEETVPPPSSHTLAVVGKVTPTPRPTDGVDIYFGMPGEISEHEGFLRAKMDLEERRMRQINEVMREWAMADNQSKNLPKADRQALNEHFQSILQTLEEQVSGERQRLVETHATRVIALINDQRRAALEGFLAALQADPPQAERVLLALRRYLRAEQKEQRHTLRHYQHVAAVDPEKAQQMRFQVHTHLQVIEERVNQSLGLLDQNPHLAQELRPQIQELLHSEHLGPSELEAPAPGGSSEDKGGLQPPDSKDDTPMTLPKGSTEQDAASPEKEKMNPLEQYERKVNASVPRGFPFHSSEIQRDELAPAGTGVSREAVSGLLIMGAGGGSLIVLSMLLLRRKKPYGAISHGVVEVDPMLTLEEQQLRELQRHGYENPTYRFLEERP

T5: PTPRN expressed on cells (human, UniProt Q16849 35-979)
T5 construct: Clone of the Origene human cDNA library; also called Protein tyrosine phosphatase receptor-type N
T5 sequence: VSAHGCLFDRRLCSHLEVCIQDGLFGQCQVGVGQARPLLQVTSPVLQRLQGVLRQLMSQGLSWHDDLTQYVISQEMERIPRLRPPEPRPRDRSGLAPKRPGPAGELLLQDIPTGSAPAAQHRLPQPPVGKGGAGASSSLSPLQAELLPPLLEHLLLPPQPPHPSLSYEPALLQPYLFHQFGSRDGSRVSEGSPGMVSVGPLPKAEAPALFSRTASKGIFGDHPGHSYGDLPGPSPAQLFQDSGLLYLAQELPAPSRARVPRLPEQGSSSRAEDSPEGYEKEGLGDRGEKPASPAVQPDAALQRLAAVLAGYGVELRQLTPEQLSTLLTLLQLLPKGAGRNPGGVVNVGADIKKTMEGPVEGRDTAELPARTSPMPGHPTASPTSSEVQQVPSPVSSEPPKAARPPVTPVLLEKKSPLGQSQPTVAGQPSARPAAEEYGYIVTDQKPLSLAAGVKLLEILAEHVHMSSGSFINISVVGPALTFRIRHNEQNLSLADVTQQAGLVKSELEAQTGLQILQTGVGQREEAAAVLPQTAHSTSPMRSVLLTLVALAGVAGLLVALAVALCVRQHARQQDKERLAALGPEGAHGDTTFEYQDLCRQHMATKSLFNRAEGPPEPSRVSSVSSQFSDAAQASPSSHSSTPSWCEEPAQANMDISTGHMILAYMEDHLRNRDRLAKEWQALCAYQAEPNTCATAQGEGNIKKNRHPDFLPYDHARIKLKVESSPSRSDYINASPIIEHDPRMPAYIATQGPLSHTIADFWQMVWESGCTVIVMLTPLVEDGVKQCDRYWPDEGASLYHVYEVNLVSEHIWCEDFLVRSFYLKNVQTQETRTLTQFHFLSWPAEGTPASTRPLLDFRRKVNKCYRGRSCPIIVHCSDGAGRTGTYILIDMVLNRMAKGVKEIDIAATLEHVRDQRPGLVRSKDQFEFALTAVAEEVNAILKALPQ


How the values were obtained:
[1] = target: T1, CLEC4G expressed on cells; assay: cDNA expression library screen with PILRα-AP supernatant on COS7 transfectants; positive clones further analysed by FACS
Description: (§1) COS7 cells were plated in a 24-well format and transfected with 10 ul of Origene library DNA (Origene, human DNA library containing 20 k genes) per well with Fugene 6 Reagent. Two days later, cells were incubated with human or mouse PILRα-Ap supernatants for 45 min at room temperature (RT). Then cells were fixed with 4% PFA for 15 min at RT. After removing fixation buffer, cells were blocked with 100 mM Glycine in HBS (20 mM Hepes, PH7.2, 150 mM NaCl) for 15 min at RT. Cells were then rinsed and incubated in HBS for 90 min at 65° C. HBS was removed and Western Blue Substrate (Promega) was added and color was developed for 30 min to 1 hr.

[2] = target: T2, IL-2Ra expressed on cells; assay: as above
Description: as §1

[3] = target: T3, FceRII expressed on cells; assay: as above
Description: as §1

APLP1 expressed on cells = target: T4, APLP1 expressed on cells; assay: as above
Description: as §1

PTPRN expressed on cells = target: T5, PTPRN expressed on cells; assay: as above
Description: as §1

[4] = target: T6, human COLEC12 expressed on cells (human, UniProt Q5KU26 1-742); assay: flow cytometry, transfected 293T cells, ligand-expressing cells gated
T6 construct: also called hCOLEC12; C-terminal his tagged hCOLEC12
T6 sequence (Q5KU26 whole entry S522P/G606S): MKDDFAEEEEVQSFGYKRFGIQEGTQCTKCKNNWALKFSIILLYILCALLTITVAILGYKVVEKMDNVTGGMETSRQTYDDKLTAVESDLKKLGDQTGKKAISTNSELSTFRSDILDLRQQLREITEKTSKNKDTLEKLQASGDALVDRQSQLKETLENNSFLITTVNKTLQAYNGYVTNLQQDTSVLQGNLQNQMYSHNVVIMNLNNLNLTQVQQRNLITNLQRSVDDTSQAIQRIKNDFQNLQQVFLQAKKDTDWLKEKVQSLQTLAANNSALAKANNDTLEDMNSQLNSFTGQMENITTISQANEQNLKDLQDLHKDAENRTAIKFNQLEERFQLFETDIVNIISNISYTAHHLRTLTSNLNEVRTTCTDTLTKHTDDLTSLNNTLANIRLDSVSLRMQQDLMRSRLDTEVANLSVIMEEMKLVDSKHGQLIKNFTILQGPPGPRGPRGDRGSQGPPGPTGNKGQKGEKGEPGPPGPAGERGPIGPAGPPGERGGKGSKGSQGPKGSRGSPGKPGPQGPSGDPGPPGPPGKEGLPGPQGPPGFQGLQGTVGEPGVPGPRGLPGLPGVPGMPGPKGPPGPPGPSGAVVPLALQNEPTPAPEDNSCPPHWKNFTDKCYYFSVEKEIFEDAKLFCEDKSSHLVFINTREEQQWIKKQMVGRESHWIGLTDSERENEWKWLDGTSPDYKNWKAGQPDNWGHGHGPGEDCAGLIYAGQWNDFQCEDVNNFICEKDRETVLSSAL

| binding result [1] | binding result [2] | binding result [3] | binding result (APLP1 expressed on cells) | binding result (PTPRN expressed on cells) | Binder | binding result [4] |
| --- | --- | --- | --- | --- | --- | --- |
| binds | binds | binds | binds | binds | hPILRα-AP (other, Used as culture supernatant; also called human PILRα-AP; Alkaline phosphatase (AP)-tagged PILRα construct; not shown: C-terminal alkaline phosphatase (AP) tag) QPSGSTGSGPSYLYGVTQPKHLSASMGGSVEIPFSFYYPWELATAPDVRISWRRGHFHRQSFYSTRPPSIHKDYVNRLFLNWTEGQKSGFLRISNLQKQDQSVYFCRVELDTRSSGRQQWQSIEGTKLSITQAVTTTTQRPSSMTTTWRLSSTTTTTGLRVTQGKRRSDSWHISLET |  |
|  |  |  |  |  | mPILRαR133A-Fc (Fc fusion, Arg mutant of mPILRα-Fc; also called mPILRα133A-Fc; variant mPILRα (R133A); not shown: Fc of mouse IgG2a (PILRα-mIgG2a, called PILRα-Fc)) not shown | no binding |
